Key:
human Cul2 (endogenous) = human Cul2 (endogenous) (human, UniProt Q13617 1-745, limits assumed); experiment: anti-Flag co-immunoprecipitation from transfected HeLa cells, anti-Cul2 immunoblot
Description: (§1) HeLa cells were transfected with mammalian expression plasmids encoding Flag-tagged versions of FBP1 (lane 1), (ΔF)FBP1 (lane 2), FBP4 (lane 3), FBP7 (lane 5), FBP2 (lane 7), (ΔF)FBP2 (lane 8), FBP3a (lane 9), (ΔF)FBP3a (lane 10), or with an empty vector (lanes 4 and 6). Cells were lysed and extracts were subjected to immunoprecipitation with a rabbit anti-Flag antibody (lanes 1-8). Immunoprecipitates were then immunoblotted with a mouse anti-Cul1 monoclonal antibody, a rabbit anti-Skp1 polyclonal antibody or a rabbit anti-Cul2 polyclonal antibody, as indicated. The last lane contains 25 μg of extracts from non-transfected HeLa cells; […] contains recombinant Cul1, Skp1, or Cul2 proteins used as markers.

His-tagged Elongin C = His-tagged Elongin C (human, UniProt Q15369 1-112); experiment: pull-down of in vitro translated 35S-FBP on His-Elongin C Nickel-agarose beads
Procedure: FIG. 29. FBPs interact specifically with Skp1 through their F-box. The cDNAs of FBPs (wild type and mutants) were transcribed and translated in vitro (IVT) in the presence of 35S- methionine. […] Bound IVT proteins were analyzed by SDS-PAGE and autoradiography. The arrows on the left side of the panels point to the indicated FBPs. The apparent molecular weights of the protein standards are indicated on the right side of the panels.
As examples of the human FBP family, a more detailed characterization of some FBPs was performed. To confirm the specificity of interaction between the novel FBPs and human Skp1, eight in vitro translated FBPs were tested for binding to His-tagged-Skp1 pre-bound to Nickel-agarose beads. As a control Elongin C was used, the only known human Skp1 homolog.

human Cul1 (endogenous) = molecular target: T1, human Cul1 (endogenous) (human, UniProt Q13616 1-776); experiment: anti-Flag co-immunoprecipitation from transfected HeLa cells, anti-Cul1 immunoblot
T1 construct: A slower migrating form is said to be likely modified by a ubiquitin-like molecule
Description: as §1

Sequence of His-tagged Elongin C (Q15369 whole entry): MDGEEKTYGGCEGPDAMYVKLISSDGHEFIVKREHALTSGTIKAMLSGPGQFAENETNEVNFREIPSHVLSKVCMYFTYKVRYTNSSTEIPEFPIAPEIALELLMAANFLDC
Sequence of human Cul2 (endogenous) (Q13617 whole entry): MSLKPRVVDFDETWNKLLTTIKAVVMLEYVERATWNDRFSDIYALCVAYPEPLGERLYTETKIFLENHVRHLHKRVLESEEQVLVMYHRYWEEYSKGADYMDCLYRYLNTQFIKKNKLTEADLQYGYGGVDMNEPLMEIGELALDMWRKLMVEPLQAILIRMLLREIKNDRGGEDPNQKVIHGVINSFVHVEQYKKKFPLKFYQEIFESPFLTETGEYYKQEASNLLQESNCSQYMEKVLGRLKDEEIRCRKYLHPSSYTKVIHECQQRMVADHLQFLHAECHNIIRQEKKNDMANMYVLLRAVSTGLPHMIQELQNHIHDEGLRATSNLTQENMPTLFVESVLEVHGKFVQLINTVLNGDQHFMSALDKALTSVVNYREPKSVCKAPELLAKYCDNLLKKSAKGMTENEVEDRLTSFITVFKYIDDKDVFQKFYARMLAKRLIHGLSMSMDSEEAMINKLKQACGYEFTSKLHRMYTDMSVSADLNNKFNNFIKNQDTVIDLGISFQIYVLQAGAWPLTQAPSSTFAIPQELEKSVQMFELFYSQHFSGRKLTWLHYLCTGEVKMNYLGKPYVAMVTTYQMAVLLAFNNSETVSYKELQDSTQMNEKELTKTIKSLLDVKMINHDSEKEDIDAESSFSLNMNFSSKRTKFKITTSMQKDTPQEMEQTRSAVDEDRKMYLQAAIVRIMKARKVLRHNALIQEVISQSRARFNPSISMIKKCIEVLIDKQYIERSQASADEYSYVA
T1 sequence (Q13616 whole entry): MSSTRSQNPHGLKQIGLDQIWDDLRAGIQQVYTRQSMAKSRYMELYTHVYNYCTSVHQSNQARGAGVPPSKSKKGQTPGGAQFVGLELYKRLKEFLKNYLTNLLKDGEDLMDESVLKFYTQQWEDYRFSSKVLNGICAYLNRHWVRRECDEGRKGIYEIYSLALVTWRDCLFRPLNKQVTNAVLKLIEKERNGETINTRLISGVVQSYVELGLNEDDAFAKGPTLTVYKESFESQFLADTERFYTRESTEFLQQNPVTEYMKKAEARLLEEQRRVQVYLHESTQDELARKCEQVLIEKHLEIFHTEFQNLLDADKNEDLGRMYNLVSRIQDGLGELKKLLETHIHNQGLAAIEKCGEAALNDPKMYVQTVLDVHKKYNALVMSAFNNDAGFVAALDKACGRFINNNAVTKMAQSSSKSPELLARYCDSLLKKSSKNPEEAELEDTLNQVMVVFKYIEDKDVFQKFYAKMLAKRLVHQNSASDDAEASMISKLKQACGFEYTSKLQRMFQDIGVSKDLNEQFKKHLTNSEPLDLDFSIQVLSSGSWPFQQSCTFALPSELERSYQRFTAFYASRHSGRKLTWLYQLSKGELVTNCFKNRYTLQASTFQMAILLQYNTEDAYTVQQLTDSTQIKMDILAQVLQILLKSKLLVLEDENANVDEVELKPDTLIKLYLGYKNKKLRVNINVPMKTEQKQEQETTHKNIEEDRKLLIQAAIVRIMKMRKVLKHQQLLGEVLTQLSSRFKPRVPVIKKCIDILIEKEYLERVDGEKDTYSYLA

Binder	binding result (human Cul2 (endogenous))	binding result (His-tagged Elongin C)	also measured
Flag-tagged FBP4 (other, not shown: small tags and cut ends, pcDNA3 construct, Flag tag at the C-terminus) MAGSEPRSGTNSPPPPFSDWGRLEAAILSGWKTFWQSVSKDRVARTTSREEVDEAASTLTRLPIDVQLYILSFLSPHDLCQLGSTNHYWNETVRNPILWRYFLLRDLPSWSSVDWKSLPYLQILKKPISEVSDGAFFDYMAVYLMCCPYTRRASKSSRPMYGAVTSFLHSLIIPNEPRFALFGPRLEQLNTSLVLSLLSSEELCPTAGLPQRQIDGIGSGVNFQLNNQHKFNILILYSTTRKERDRAREEHTSAVNKMFSRHNEGDDRPGSRYSVIPQIQKLCEVVDGFIYVANAEAHKRHEWQDEFSHIMAMTDPAFGSSGRPLLVLSCISQGDVKRMPCFYLAHELHLNLLNHPWLVQDTEAETLTGFLNGIEWILEEVESKRAR	no binding		
Flag-tagged FBP7 (other, not shown: small tags and cut ends, Expressed in HeLa cells) MSNTRFTITLNYKDPLTGDEETLASYGIVSGDLICLILHDDIPPPNIPSSTDSEHSSLQNNEQPSLATSSNQTSIQDEQPSDSFQGQAAQSGVWNDDSMLGPSQNFEAESIQDNAHMAEGTGFYPSEPLLCSESVEGQVPHSLETLYQSADCSDANDALIVLIHLLMLESGYIPQGTEAKALSLPEKWKLSGVYKLQYMHHLCEGSSATLTCVPLGNLIVVNATLKINNEIRSVKRLQLLPESFICKEKLGENVANIYKDLQKLSRLFKDQLVYPLLAFTRQALNLPNVFGLVVLPLELKLRIFRLLDVRSVLSLSAVCRDLFTASNDPLLWRFLYLRDFRDNTVRVQDTDWKELYRKRHIQRKESPKGRFVLLLPSSTHTIPFYPNPLHPRPFPSSRLPPGIIGGEYDQRPTLPYVGDPISSLIPGPGETPSQLPPLRPRFDPVGPLPGPNPILPGRGGPNDRFPFRPSRGRPTDGRLSFM	no binding		
human F-box protein FBP1 (other) MDPAEAVLQEKALKFMNSSEREDCNNGEPPRKIIPEKNSLRQTYNSCARLCLNQETVCLASTAMKTENCVAKTKLANGTSSMIVPKQRKLSASYEKEKELCVKYFEQWSESDQVEFVEHLISQMCHYQHGHINSYLKPMLQRDFITALPARGLDHIAENILSYLDAKSLCAAELVCKEWYRVTSDGMLWKKLIERMVRTDSLWRGLAERRGWGQYLFKNKPPDGNAPPNSFYRALYPKIIQDIETIESNWRCGRHSLQRIHCRSETSKGVYCLQYDDQKIVSGLRDNTIKIWDKNTLECKRILTGHTGSVLCLQYDERVIITGSSDSTVRVWDVNTGEMLNTLIHHCEAVLHLRFNNGMMVTCSKDRSIAVWDMASPTDITLRRVLVGHRAAVNVVDFDDKYIVSASGDRTIKVWNTSTCEFVRTLNGHKRGIACLQYRDRLVVSGSSDNTIRLWDIECGACLRVLEGHEELVRCIRFDNKRIVSGAYDGKIKVWDLVAALDPRAPAGTLCLRTLVEHSGRVFRLQFDEFQIVSSSHDDTILIWDFLNDPAAQAEPPRSPSRTYTYISR		no binding	
Flag-tagged FBP1 (other, not shown: small tags and cut ends, Flag tag at the C-terminus in the pcDNA3 constructs (HeLa, 293 cells); also called Flag-FBP1) MDPAEAVLQEKALKFMNSSEREDCNNGEPPRKIIPEKNSLRQTYNSCARLCLNQETVCLASTAMKTENCVAKTKLANGTSSMIVPKQRKLSASYEKEKELCVKYFEQWSESDQVEFVEHLISQMCHYQHGHINSYLKPMLQRDFITALPARGLDHIAENILSYLDAKSLCAAELVCKEWYRVTSDGMLWKKLIERMVRTDSLWRGLAERRGWGQYLFKNKPPDGNAPPNSFYRALYPKIIQDIETIESNWRCGRHSLQRIHCRSETSKGVYCLQYDDQKIVSGLRDNTIKIWDKNTLECKRILTGHTGSVLCLQYDERVIITGSSDSTVRVWDVNTGEMLNTLIHHCEAVLHLRFNNGMMVTCSKDRSIAVWDMASPTDITLRRVLVGHRAAVNVVDFDDKYIVSASGDRTIKVWNTSTCEFVRTLNGHKRGIACLQYRDRLVVSGSSDNTIRLWDIECGACLRVLEGHEELVRCIRFDNKRIVSGAYDGKIKVWDLVAALDPRAPAGTLCLRTLVEHSGRVFRLQFDEFQIVSSSHDDTILIWDFLNDPAAQAEPPRSPSRTYTYISR	no binding		
Flag-tagged FBP3a (other, not shown: small tags and cut ends, pcDNA3 construct, Flag tag at the C-terminus) MKRGGRDSDRNSSEEGTAEKSKKLRTTNEHSQTCDWGNLLQDIILQVFKYLPLLDRAHASQVCRNWNQVFHMPDLWRCFEFELNQPATSYLKATHPELIKQIIKRHSNHLQYVSFKVDSSKESAEAACDILSQLVNCSLKTLGLISTARPSFMDLPKSHFISALTVVFVNSKSLSSLKIDDTPVDDPSLKVLVANNSDTLKLLKMSSCPHVSPAGILCVADQCHGLRELALNYHLLSDELLLALSSEKHVRLEHLRIDVVSENPGQTHFHTIQKSSWDAFIRHSPKVNLVMYFFLYEEEFDPFFRYEIPATHLYFGRSVSKDVLGRVGMTCPRLVELVVCANGLRPLDEELIRIAERCKNLSAIGLGECEVSCSAFVEFVKMCGGRLSQLSIMEEVLIPDQKYSLEQIHWEVSKHLGRVWFPDMMPTW	no binding		
human F-box protein FBP3a (other) MKRGGRDSDRNSSEEGTAEKSKKLRTTNEHSQTCDWGNLLQDIILQVFKYLPLLDRAHASQVCRNWNQVFHMPDLWRCFEFELNQPATSYLKATHPELIKQIIKRHSNHLQYVSFKVDSSKESAEAACDILSQLVNCSLKTLGLISTARPSFMDLPKSHFISALTVVFVNSKSLSSLKIDDTPVDDPSLKVLVANNSDTLKLLKMSSCPHVSPAGILCVADQCHGLRELALNYHLLSDELLLALSSEKHVRLEHLRIDVVSENPGQTHFHTIQKSSWDAFIRHSPKVNLVMYFFLYEEEFDPFFRYEIPATHLYFGRSVSKDVLGRVGMTCPRLVELVVCANGLRPLDEELIRIAERCKNLSAIGLGECEVSCSAFVEFVKMCGGRLSQLSIMEEVLIPDQKYSLEQIHWEVSKHLGRVWFPDMMPTW		no binding	
Flag-tagged (ΔF)FBP2 (other, not shown: small tags and cut ends, pcDNA3 construct, Flag tag at the C-terminus; also called Flag-tagged (deltaF)FBP2) MERKDFETWLDNISVTFLSLTDLQKNETLDHLISLSGAVQLRHLSNNLETLLKRDFLKLCKNLGWQIDDSVQDALHWKKVYLKAILRMKQLEDHEAFETSSLIGHSARVYALYYKDGLLCTGSDDLSAKLWDVSTGQCVYGIQTHTCAAVKFDEQKLVTGSFDNTVACWEWSSGARTQHFRGHTGAVFSVDYNDELDILVSGSADFTVKVWALSAGTCLNTLTGHTEWVTKVVLQKCKVKSLLHSPGDYILLSADKYEIKIWPIGREINCKCLKTLSVSEDRSICLQPRLHFDGKYIVCSSALGLYQWDFASYDILRVIKTPEIANLALLGFGDIFALLFDNRYLYIMDLRTESLISRWPLPEYRESKRGSSFLAGEHPG			binding result (human Cul1 (endogenous)): no binding
human F-box protein FBP5 (other, Gal4 AD fusion in the two-hybrid screen; the clone appeared to be full length) MSRRPCSCALRPPRCSCSASPSAVTAAGRPRPSDSCKEESSTLSVKMKCDFNCNHVHSGLKLVKPDDIGRLVSYTPAYLEGSCKDCIKDYERLSCIGSPIVSPRIVQLETESKRLHNKENQHVQQTLNSTNEIEALETSRLYEDSGYSSFSLQSGLSEHEEGSLLEENFGDSLQSCLLQIQSPDQYPNKNLLPVLHFEKVVCSTLKKNAKRNPKVDREMLKEIIARGNFRLQNIIGRKMGLECVDILSELFRRGLRHVLATILAQLSDMDLINVSKVSTTWKKILEDDKGAFQLYSKAIQRVTENNNKFSPHASTREYVMFRTPLASVQKSAAQTSLKKDAQTKLSNQGDQKGSTYSRHNEFSEVAKTLKKNESLKACIRCNSPAKYDCYLQRATCKREGCGFDYCTKCLCNYHTTKDCSDGKLLKASCKIGPLPGTKKSKKNLRRL		no binding	
Flag-tagged (ΔF)FBP1 (other, not shown: small tags and cut ends, pcDNA3 construct, Flag tag at the C-terminus; also called Flag-tagged (deltaF)FBP1) MDPAEAVLQEKALKFMNSSEREDCNNGEPPRYRVTSDGMLWKKLIERMVRTDSLWRGLAERRGWGQYLFKNKPPDGNAPPNSFYRALYPKIIQDIETIESNWRCGRHSLQRIHCRSETSKGVYCLQYDDQKIVSGLRDNTIKIWDKNTLECKRILTGHTGSVLCLQYDERVIITGSSDSTVRVWDVNTGEMLNTLIHHCEAVLHLRFNNGMMVTCSKDRSIAVWDMASPTDITLRRVLVGHRAAVNVVDFDDKYIVSASGDRTIKVWNTSTCEFVRTLNGHKRGIACLQYRDRLVVSGSSDNTIRLWDIECGACLRVLEGHEELVRCIRFDNKRIVSGAYDGKIKVWDLVAALDPRAPAGTLCLRTLVEHSGRVFRLQFDEFQIVSSSHDDTILIWDFLNDPAAQAEPPRSPSRTYTYISR			binding result (human Cul1 (endogenous)): no binding
Flag-tagged FBP2 (other, not shown: small tags and cut ends, pcDNA3 construct, Flag tag at the C-terminus) MERKDFETWLDNISVTFLSLTDLQKNETLDHLISLSGAVQLRHLSNNLETLLKRDFLKLLPLELSFYLLKWLDPQTLLTCCLVSKQWNKVISACTEVWQTACKNLGWQIDDSVQDALHWKKVYLKAILRMKQLEDHEAFETSSLIGHSARVYALYYKDGLLCTGSDDLSAKLWDVSTGQCVYGIQTHTCAAVKFDEQKLVTGSFDNTVACWEWSSGARTQHFRGHTGAVFSVDYNDELDILVSGSADFTVKVWALSAGTCLNTLTGHTEWVTKVVLQKCKVKSLLHSPGDYILLSADKYEIKIWPIGREINCKCLKTLSVSEDRSICLQPRLHFDGKYIVCSSALGLYQWDFASYDILRVIKTPEIANLALLGFGDIFALLFDNRYLYIMDLRTESLISRWPLPEYRESKRGSSFLAGEHPG	no binding		
human F-box protein FBP2 (other) MERKDFETWLDNISVTFLSLTDLQKNETLDHLISLSGAVQLRHLSNNLETLLKRDFLKLLPLELSFYLLKWLDPQTLLTCCLVSKQWNKVISACTEVWQTACKNLGWQIDDSVQDALHWKKVYLKAILRMKQLEDHEAFETSSLIGHSARVYALYYKDGLLCTGSDDLSAKLWDVSTGQCVYGIQTHTCAAVKFDEQKLVTGSFDNTVACWEWSSGARTQHFRGHTGAVFSVDYNDELDILVSGSADFTVKVWALSAGTCLNTLTGHTEWVTKVVLQKCKVKSLLHSPGDYILLSADKYEIKIWPIGREINCKCLKTLSVSEDRSICLQPRLHFDGKYIVCSSALGLYQWDFASYDILRVIKTPEIANLALLGFGDIFALLFDNRYLYIMDLRTESLISRWPLPEYRESKRGSSFLAGEHPG		no binding	

Source: patent publication US20020123082A1 (NEW YORK UNIVERSITY, published 2002)
